Like-named read-outs stand apart in the source and are kept apart here.
B1: Flavobacterium johnsoniae GldM C-terminally truncated after the first folded periplasmic domain (first 225 amino acids) (domain or fragment, UniProt Q5EGM3 1-225, looked up)
chain: MAGGKLTPRQKMINLMYLVFIAMLAMNVSKEVISAFGLMNEKFEAANTSSVTTNESLLTSLDQKAAEAKGEFAKAAETAHKVQAASKEFYDYIGTLKTQAVKGFEVDKETGKMPYEAMDRGDNIDDWFTGDGYTKKGNEIIAKIEKYKSDIKAALGTDKKYAGIISEVEKKFDVSDVKNKEGIKEKYLAYHFKGFPAIASAAKLSAWQNDVKKTEADVYNSALGK
B2: Flavobacterium johnsoniae GldL (natural protein, UniProt Q5EGM4 1-215, looked up)
chain: MALLSKKVMNFAYGMGAAVVIVGALFKITHFEIGPLTGTVMLSIGLLTEALIFALSAFEPVEDELDWTLVYPELANGQARKKEAKAETATDAQGLLSQKLDAMLKEAKVDGELMASLGNSIKNFEGAAKAISPTVDSIAGQKKYAEEMSMAAAQMESLNSLYKVQLESASRNAQANSEIAENAAKLKEQMASMTANIASLNSVYGGMLSAMSNKG
B3: Porphyromonas gingivalis ATCC 33277 PorM (natural protein, UniProt B2RLE8 1-516, looked up)
chain: MAVGSNGNANRQKMINLMYLVFIAMMALNVSSEVLDGFDKVDKSLTSSIDGSDKRNNLVLSELNTAYRTNPEKVKVWYERSLVLQKEADSLCTFIDDLKLAIARESDGKDAKVNDIRRKDNLDASSVVMLNPINGKGSTLRKEVDKFRELVATLMTDKAKLKLIEQALNTESGTKGKSWESSLFENMPTVAAITLLTKLQSDVRYAQGEVLADLVKSVDVGDYRVNSITAQVIPQSQIVMSGDTYKANIVLSSVDTTQRPDVFVNGKLLSPENMGLFTATAGAPGTYPVKGYIEMMGNDGVKIRRDFESEYFVTEPMASVAPTMMNVLYAGIDNPINIAVPGVAQQNVSATINNGTLTRRGNLWIARPTKVGSEAIISVTAQSGGRTIQMAKTTLRVRALPDPLPYIEYKDVQGNTKRFKGGRLGKREILAAGGIKAALDDDLLEVNYTVVKFQLVFYDSMGNSIPEVSDGASFSERQKRQIQNLGKGKRFYVTEVIARGPDGIERKIPAIEVIVN

Key:
[1] = target: the molecule itself; assay: cryo-EM structure
[2] = target: the molecule itself; assay: cryo-EM structure; remark: listed apart in the source

Protein | stoichiometry N [1] | stoichiometry N [2]
B1 | 2 | –
B2 | 5 | –
B3 | – | 2
